Patent US20260274985A1 (MYTHIC THERAPEUTICS, published 2026)
Positions count from the first letter of the chain named. Blank lines part the entries; values can stand above or below the binder they belong to.

Key:
[1] = target: T1, Human TROP2 Protein, His Tag (Acro Biosystems) (human, UniProt P09758 27-274); assay: BLI (Octet) [1/2]
T1 construct: not shown: His tag
T1 sequence (looked up): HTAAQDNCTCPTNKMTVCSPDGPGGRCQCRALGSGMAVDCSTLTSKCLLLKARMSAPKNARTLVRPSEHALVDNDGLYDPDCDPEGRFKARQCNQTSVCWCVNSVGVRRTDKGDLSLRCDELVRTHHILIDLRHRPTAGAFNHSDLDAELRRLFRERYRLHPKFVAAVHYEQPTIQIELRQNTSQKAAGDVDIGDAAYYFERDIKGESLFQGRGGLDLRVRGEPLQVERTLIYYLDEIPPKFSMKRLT

[2] = target: T2, Human TROP2 Protein, His Tag (Acro Biosystems) (human, UniProt P09758 27-274); assay: BLI (Octet)
T2 construct: Soluble analyte of the Octet assay; also called TACSTD2; not shown: His tag
T2 sequence (looked up): T1 sequence (looked up)

binding result [2]: binds
B20: MYT13165 (antibody, V domains shown)
VH: QVQLQQSGSELKKPGASVKVSCKASGYTFTNYGMNWVKQAPGQGLKWMGWINTYTGEPTYTDDHKGRFAFSLDTSVSTAYLQISSLKADDTAVYFCARGGFGSSYWYFDVWGQGSLVTVSS
VL: DIQLTQSPSSLSASVGDRVSITCKASQDVHIAVAWYQQKPGKAPKLLIYSASYRYTGVPDRFSGSGSGTDFTLTISSLQPEDFAVYYCQQHYITPLTFGAGTKVEIK
notes: Sacituzumab HC-LC pairing variant; IgG

binding result [1]: binds
B21: MYT12316 (antibody, V domains shown)
VH: B20 VH with D63H
VL: B20 VL with H30S
notes: sacituzumab VH 63, 64 -> H

binding result [1]: binds
B22: MYT12300 (antibody, V domains shown)
VH: B20 VH with Y32H, H64F, G66H
VL: B20 VL with H30S
notes: sacituzumab VH 32, 66 -> H

binding result [2]: binds
B23: MYT13184 (antibody, V domains shown)
VH: B20 VH with Y32H, H64F
VL: B20 VL with H30S, S52H
notes: as for B20

binding result [2]: binds
B24: MYT13177 (antibody, V domains shown)
VH: B20 VH with G33H, H64F
VL: B20 VL with H30S, A51H
notes: as for B20

binding result [2]: binds
B25: MYT13162 (antibody, V domains shown)
VH: B20 VH with Y60H, H64F
VL: B20 VL
notes: as for B20

binding result [2]: binds
B26: MYT13183 (antibody, V domains shown)
VH: B20 VH with H64F, G66H
VL: B20 VL with H30S, A51H
notes: as for B20

binding result [2]: binds
B27: MYT13167 (antibody, V domains shown)
VH: B20 VH with H64F, G66H
VL: B20 VL
notes: as for B20

binding result [2]: binds
B28: MYT13168 (antibody, V domains shown)
VH: B20 VH with Y32H, H64F
VL: B20 VL with H30S, V33H
notes: as for B20

binding result [1]: binds
B29: MYT12312 (antibody, V domains shown)
VH: B20 VH with D62H, D63H, H64F
VL: B20 VL with H30S
notes: sacituzumab VH 62, 63 -> H

binding result [1]: binds
B30: MYT12301 (antibody, V domains shown)
VH: B20 VH with G33H, Y60H, H64F
VL: B20 VL with H30S
notes: sacituzumab VH 33, 60 -> H

binding result [2]: binds
B31: MYT13182 (antibody, V domains shown)
VH: B20 VH with H64F, K65H
VL: B20 VL with H30S, A51H
notes: as for B20

binding result [2]: binds
B32: MYT13173 (antibody, V domains shown)
VH: B20 VH
VL: B20 VL with H30S, V33H
notes: as for B20

binding result [1]: binds
B33: MYT12309 (antibody, V domains shown)
VH: B20 VH with Y60H
VL: B20 VL with H30S
notes: sacituzumab VH 60, 64 -> H

binding result [2]: binds
B34: MYT13189 (antibody, V domains shown)
VH: B20 VH
VL: B20 VL with H30S, S52H
notes: as for B20

binding result [2]: binds
B35: MYT13180 (antibody, V domains shown)
VH: B20 VH with D63H, H64F
VL: B20 VL with H30S, A51H
notes: as for B20

binding result [2]: binds
B36: MYT13163 (antibody, V domains shown)
VH: B20 VH with D62H, H64F
VL: B20 VL
notes: as for B20

binding result [2]: binds
B37: MYT13181 (antibody, V domains shown)
VH: B20 VH
VL: B20 VL with H30S, A51H
notes: as for B20

binding result [2]: binds
B38: MYT13179 (antibody, V domains shown)
VH: B20 VH with D62H, H64F
VL: B20 VL with H30S, A51H
notes: as for B20

binding result [1]: binds
B39: MYT12307 (antibody, V domains shown)
VH: B20 VH with Y60H, D62H, H64F
VL: B20 VL with H30S
notes: sacituzumab VH 60, 62 -> H

binding result [1]: binds
B40: MYT12303 (antibody, V domains shown)
VH: B20 VH with G33H, D63H, H64F
VL: B20 VL with H30S
notes: sacituzumab VH 33, 63 -> H

binding result [2]: binds
B41: MYT13169 (antibody, V domains shown)
VH: B20 VH with G33H, H64F
VL: B20 VL with H30S, V33H
notes: as for B20

binding result [2]: binds
B42: MYT13166 (antibody, V domains shown)
VH: B20 VH with H64F, K65H
VL: B20 VL
notes: as for B20

binding result [2]: binds
B43: MYT13185 (antibody, V domains shown)
VH: B20 VH with G33H, H64F
VL: B20 VL with H30S, S52H
notes: as for B20

binding result [2]: binds
B44: MYT13164 (antibody, V domains shown)
VH: B20 VH with D63H, H64F
VL: B20 VL
notes: as for B20

The remaining lines, values behind:

B1: MYT12299 (antibody, V domains shown)
VH: B20 VH with Y32H, H64F, K65H
VL: B20 VL with H30S
notes: sacituzumab VH 32, 65 -> H
binding result [1]: binds

B2: MYT13176 (antibody, V domains shown)
VH: B20 VH with Y32H, H64F
VL: B20 VL with H30S, A51H
notes: as for B20
binding result [2]: binds

B3: MYT12314 (antibody, V domains shown)
VH: B20 VH with D62H, H64F, K65H
VL: B20 VL with H30S
notes: sacituzumab VH 62, 65 -> H
binding result [1]: binds

B4: MYT13186 (antibody, V domains shown)
VH: B20 VH with Y60H, H64F
VL: B20 VL with H30S, S52H
notes: as for B20
binding result [2]: binds

B5: MYT12313 (antibody, V domains shown)
VH: B20 VH with D62H
VL: B20 VL with H30S
notes: sacituzumab VH 62, 64 -> H
binding result [1]: binds

B6: MYT13188 (antibody, V domains shown)
VH: B20 VH with D63H, H64F
VL: B20 VL with H30S, S52H
notes: as for B20
binding result [2]: binds

B7: MYT13172 (antibody, V domains shown)
VH: B20 VH with D63H, H64F
VL: B20 VL with H30S, V33H
notes: as for B20
binding result [2]: binds

B8: MYT13171 (antibody, V domains shown)
VH: B20 VH with D62H, H64F
VL: B20 VL with H30S, V33H
notes: as for B20
binding result [2]: binds

B9: MYT12311 (antibody, V domains shown)
VH: B20 VH with Y60H, H64F, G66H
VL: B20 VL with H30S
notes: sacituzumab VH 60, 66 -> H
binding result [1]: binds

B10: MYT13161 (antibody, V domains shown)
VH: B20 VH with G33H, H64F
VL: B20 VL
notes: as for B20
binding result [2]: binds

B11: MYT13175 (antibody, V domains shown)
VH: B20 VH with H64F, G66H
VL: B20 VL with H30S, V33H
notes: as for B20
binding result [2]: binds

B12: MYT13174 (antibody, V domains shown)
VH: B20 VH with H64F, K65H
VL: B20 VL with H30S, V33H
notes: as for B20
binding result [2]: binds

B13: MYT13178 (antibody, V domains shown)
VH: B20 VH with Y60H, H64F
VL: B20 VL with H30S, A51H
notes: as for B20
binding result [2]: binds

B14: MYT12305 (antibody, V domains shown)
VH: B20 VH with G33H, H64F, K65H
VL: B20 VL with H30S
notes: sacituzumab VH 33, 65 -> H
binding result [1]: binds

B15: MYT13200 (antibody, V domains shown)
VH: B20 VH with Y32H, H64F
VL: B20 VL with H30S, Q89H
notes: as for B20
binding result [2]: binds

B16: MYT13170 (antibody, V domains shown)
VH: B20 VH with Y60H, H64F
VL: B20 VL with H30S, V33H
notes: as for B20
binding result [2]: binds

B17: MYT12315 (antibody, V domains shown)
VH: B20 VH with D62H, H64F, G66H
VL: B20 VL with H30S
notes: sacituzumab VH 62, 66 -> H
binding result [1]: binds

B18: MYT12304 (antibody, V domains shown)
VH: B20 VH with G33H
VL: B20 VL with H30S
notes: sacituzumab VH 33, 64 -> H
binding result [1]: binds

B19: MYT12308 (antibody, V domains shown)
VH: B20 VH with Y60H, D63H, H64F
VL: B20 VL with H30S
notes: sacituzumab VH 60, 63 -> H
binding result [1]: binds
